Patent US20130158238A1 (THERACLONE SCIENCES, published 2013)

Columns and labels:
Assay in all cases: ELISA, peptide 2 µg/mL, mAb 5 µg/mL
[1] = molecular target: NM10
[2] = molecular target: NM16
[3] = molecular target: NM11
[4] = molecular target: NM9

Binder | binding activity (ELISA A450) [1] | binding activity (ELISA A450) [2] | binding activity (ELISA A450) [3] | binding activity (ELISA A450) [4]
23K12 (antibody, V domains shown) VH: EVQLVESGGGLVQPGGSLRISCAASGFTVSSNYMSWVRQAPGKGLEWVSVIYSGGSTYYADSVKGRFSFSRDNSKNTVFLQMNSLRAEDTAVYYCARCLSRMRGYGLDVWGQGTTVTVS VL: DIQMTQSPSSLSASVGDRVTITCRTSQSISSYLNWYQQKPGKAPKLLIYAASSLQSGVPSRFSGSGSGTDFTLTISGLQPEDFATYYCQQSYSMPAFGQGTKLEIK | 0.24 | 0.62 | 0.3 | 0.3
8i10 (antibody, V domains shown) VH: QVQLQESGPGLVKPSETLSLTCTVSGSSISNYYWSWIRQSPGKGLEWIGFIYYGGNTKYNPSLKSRVTISQDTSKSQVSLTMSSVTAAESAVYFCARASCSGGYCILDYWGQGTLVTVS VL: DIQMTQSPSSLSASVGDRVTITCRASQNIYKYLNWYQQRPGKAPKGLISAASGLQSGVPSRFSGSGSGTDFTLTITSLQPEDFATYYCQQSYSPPLTFGGGTRVEIK | 0.1 | 0.29 | 0.13 | 0.12
